In patent US20200368279:

Assays:
Assay in all cases: cell_activity
[1] = system: SBS75606 ZFN; details: pair with SBS75609, K562, 15 ug/mL mRNA; 70.1 at 3.75 ug/mL
[2] = system: SBS75714 ZFN; details: pair with SBS75715, K562, 15 ug/mL mRNA; 84.0 at 3.75 ug/mL
[3] = system: SBS75895 ZFN; details: pair with SBS75893, K562, 15 ug/mL mRNA; 76.6 at 3.75 ug/mL
[4] = system: SBS75609 ZFN; details: pair with SBS75606, K562, 15 ug/mL mRNA; 70.1 at 3.75 ug/mL
[5] = system: SBS75592 ZFN; details: pair with SBS75591, K562, 15 ug/mL mRNA; 80.0 at 3.75 ug/mL
[6] = system: SBS75715 ZFN; details: pair with SBS75714, K562, 15 ug/mL mRNA; 84.0 at 3.75 ug/mL
[7] = system: SBS75893 ZFN; details: pair with SBS75895, K562, 15 ug/mL mRNA; 76.6 at 3.75 ug/mL
[8] = system: SBS75591 ZFN; details: pair with SBS75592, K562, 15 ug/mL mRNA; 80.0 at 3.75 ug/mL

AAGGAGGTGCTCCTGGAATTACTTAGCA (double strand) [SBS75606 target]
activity [1]: 91.4 % indels

AGGGATGGGATGACTTGGCTTTAGGTCA (double strand) [SBS75714 target]
activity [2]: 90.7 % indels

AGGTTGGGAGTGGGGTCTTGTTCAGGGC (double strand) [SBS75895 target]
activity [3]: 91.3 % indels

CTCCCCTGACCAAGGAAAATCGGGGTGG (double strand) [SBS75609 target]
activity [4]: 91.4 % indels

GCTAAGTAATTCCAGGAGCACCTCCTTT (double strand) [SBS75592 target]
activity [5]: 91.2 % indels

GGACTCAGGTGGGGGGTCTAGGGGTGAG (double strand) [SBS75715 target]
activity [6]: 90.7 % indels

GGGCTAGGGCTGAAGTGAGGTGAAAGGT (double strand) [SBS75893 target]
activity [7]: 91.3 % indels

TCGGCCATCAGAAGGGAGGGACCCTGCT (double strand) [SBS75591 target]
activity [8]: 91.2 % indels
